The values that follow come from patent publication US20170002075A1 (AbbVie / Abbott, published 2017).

The target of assay [1] is T1, E. coli RAGE Construct #5, 6His-(Thr)-[RAGE (130-234)] (human).
T1 construct: Expressed in E. coli with an N-terminal 6His-(Thr) tag, which is part of the entry; also called RAGE protein #5
T1 chain: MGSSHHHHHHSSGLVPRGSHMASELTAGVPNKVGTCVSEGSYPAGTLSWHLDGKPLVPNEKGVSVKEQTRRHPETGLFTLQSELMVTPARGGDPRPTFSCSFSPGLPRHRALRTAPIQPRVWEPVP
In words: ELISA: RAGE 130-234 (E. coli, D#1477) coated, mAb titrated, anti-mouse HRP conjugate, TMB. As for the experimental part:
(§1) Antigens (purified construct #1-7 proteins) were diluted into Coating Buffer [100 mM NaHCO₃, pH 8.2] to 1 μg/ml, and 100 μl of the resulting solution was then aliquoted into a 96-well Nunc Immuno Plate (Maxi-Sorb Surface, flat bottom, catalog #439454). The plate was sealed with sealing film and incubated at 4° C. overnight. The next day, the plate wells were each washed 3 times with 150 μL PBST buffer [Sigma PBS+0.05% Tween 20]. Then 300 ul of blocking solution (3% NFDM in PBST) was added to each well. The plate was incubated for 2 hours at room temperature and shaking at 100 rpm. After the incubation step, each well was again washed three times with 150 uL PBST. […] The plate was then sealed with sealing film and incubated for 2 hours at room temperature and shaking at 100 rpm. Next the antibody solution was drained out of the wells, and each well then washed three times with 200 ul PBST. To each well then 200 ul of a 1:5000 dilution (in PBST/1% NFDM) of conjugated secondary antibody [Donkey anti-mouse HRPO conjugate, Jackson Immuno Research, Catalog #715-035-150] was added. The plate was covered and allowed to incubate for 1 hour at room temperature while shaking at 100 rpm. Following this incubation, the solution was removed from the wells and each well was washed three times with 200 ul PBST. To each well 100 μL of HRPO substrate [3,3′,5′,5′-Tetramethylbenzidine Liquid Substrate (TMB), Supersensitive for ELISA, Sigma Catalog #T4444] solution was added and the plate incubated at room temperature for 10 minutes. Finally, 50 μL of 2M H₂SO₄ was added to each well to stop the reaction and the A₅₄₀ₙₘ of each well was measured using a microtiter plate reader.
(ELISA stands for enzyme-linked immunosorbent assay.)

In assay [2] the target is T2, hRAGE (1-331) / human sRAGE 1-331, V#400 (human, UniProt Q15109 23-331).
T2 construct: also called sRAGE [RAGE (1-331)]; RAGE (antigen of the Biacore runs)
T2 sequence (Q15109 23-331): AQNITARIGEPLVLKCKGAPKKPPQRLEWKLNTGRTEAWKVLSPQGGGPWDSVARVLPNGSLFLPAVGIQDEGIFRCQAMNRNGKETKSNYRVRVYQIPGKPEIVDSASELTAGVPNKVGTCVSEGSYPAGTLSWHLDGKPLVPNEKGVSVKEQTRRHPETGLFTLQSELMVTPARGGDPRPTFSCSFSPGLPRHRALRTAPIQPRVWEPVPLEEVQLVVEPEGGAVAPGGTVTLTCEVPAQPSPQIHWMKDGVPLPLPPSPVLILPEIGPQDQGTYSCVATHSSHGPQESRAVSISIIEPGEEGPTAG
In words: Biacore 2000 SPR, mAb captured via anti-mouse Fc, RAGE injected 20-0.31 nM, HBS-EP+ buffer, 1:1 fit. As for the experimental part:
The assay format for mAb affinity analysis was Fc-based capture via immobilized anti-Fc antibodies. A standard amine coupling protocol was employed to immobilize Fc-specific IgG via primary amines to the carboxy-methyl (CM) dextran surface of CM5 sensorchips (Biacore). […] Briefly, the CM-dextran surfaces were activated by freshly prepared 1:1 50 mM N-hydroxysuccinimide (NHS):200 mM 3-(N,N-dimethylamino) propyl-N-ethylcarbodiimide (EDC). Then the anti-Fc IgG capture reagent (20 ug/ml in 10 mM sodium acetate, pH4.5) was applied to the surface followed by deactivation of the surface and blocking of the residual reactive sites with 1M ethanolamine (pH 8.5).
Each experimental cycle consisted of the following steps: 1) anti-RAGE mAbs were captured in flowcells 2, 3 or 4 to a level of 50-200 RU (depending on the antigen). All measurements were referenced against flowcell 1 which had no captured anti-RAGE mAb. […] 3) the anti-Fc capture surface was regenerated with low pH glycine.
Briefly, the data were double referenced by first, subtracting the signal from the reference cell and second, by subtracting the signal from buffer-only injections.
In general terms: Surface plasmon resonance follows binding to a sensor surface in real time, without labels.

The target in assay [3] is T3, E. coli RAGE Construct #4, 6His-(Thr)-[RAGE (24-336)] (human, UniProt Q15109 24-336).
T3 construct: Expressed in E. coli with an N-terminal 6His-(Thr) tag, which is part of the entry; also called RAGE protein #4
As to the kind of experiment: ELISA: RAGE 24-336 (E. coli, D#1476) coated, mAb titrated, anti-mouse HRP conjugate, TMB. On the procedure: as §1

In assay [4] the target is T4, E. coli RAGE Construct #3, 6His-(Thr)-[RAGE (24-234)] (human, UniProt Q15109 24-234).
T4 construct: Expressed in E. coli with an N-terminal 6His-(Thr) tag, which is part of the entry; also called RAGE protein #3
As to the kind of experiment: ELISA: RAGE 24-234 (E. coli, D#1475) coated, mAb titrated, anti-mouse HRP conjugate, TMB. On the procedure: as §1

In another assay the target is T5, RAGE-derived peptide 10 (human).
T5 construct: Synthetic peptide with a free carboxyl terminus
T5 peptide: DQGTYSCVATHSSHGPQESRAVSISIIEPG
In words: dot blot, non-denatured peptide on nitrocellulose. The source says: (§2) Dot blots were used to evaluate the binding of antibodies to peptides or fragments of RAGE in a non-denatured form. […] Peptides were ordered and synthesized by Biotrend according to standard methods (solid phases peptide synthesis on AMS 222 synthesizer using Fmoc/tBu-chemistry) containing a free carboxyl terminus. Peptides were HPLC-purified and analysis of every peptide for purity was done using RP-HPLC. […] The identities of peptides were verified by mass spectrometry.
(§3) Dots consisting of different amount of protein/peptide (30 ng, 10 ng, 3 ng, 1 ng, 0.3 ng, 0.1 ng, 0.03 ng, and 0.01 ng) in a volume of 1 μl in 1×PBS were spotted onto a Hybond-ECL Nitrocellulose Membrane (Amersham, RPN68D) in duplicates. Membranes were dried and unspecific binding was blocked by shaking the membranes for 1 hour at room temperature with Western Blocking reagent (Roche, no. 1921673). Blocking reagent was discarded and the membranes were incubated with antibodies in a concentration of 7.14 nM (shaking, 1 hour at room temperature). […] Blots were washed 4 times (each time 5 minute incubation with shaking at room temperature) with 1×PBS. Blots were then incubated with goat anti mouse IgG AP secondary antibody (Sigma no. A-7434) diluted 1:2000 in Western Blocking Reagent (Roche, no. 192173). Incubation for 1 hour was as before (shaking, room temperature). The filters were washed 4 times (5 minutes each) in 1×PBS. Development of signals was according to manufacturers instructions with NBT/BCIP substrate solution (Roche, no. 1697471). Color development was stopped after 10 minutes with bi-distilled water.

Another assay has as its target T6, RAGE-derived peptide 5 (human).
T6 construct: Synthetic peptide with a free carboxyl terminus
T6 peptide: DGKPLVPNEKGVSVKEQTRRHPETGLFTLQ
In words: dot blot, non-denatured peptide on nitrocellulose.
Excerpt: as §2, §3

The target in the next assay is T7, RAGE-derived peptide 7 (human).
T7 construct: Synthetic peptide with a free carboxyl terminus
T7 peptide: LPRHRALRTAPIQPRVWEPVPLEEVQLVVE
In words: dot blot, non-denatured peptide on nitrocellulose.
Excerpt: as §2, §3

The next assay deals with T8, RAGE-derived peptide 8 (human).
T8 construct: Synthetic peptide with a free carboxyl terminus
T8 peptide: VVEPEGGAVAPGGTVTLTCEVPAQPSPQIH
In words: dot blot, non-denatured peptide on nitrocellulose.
Excerpt: as §2, §3

B1: anti-human RAGE monoclonal antibody 7F9 (murine, hybridoma-derived) (antibody, V domains shown)
VH: EEKLEESGGGLVQLGGSMKISCVASGFTLSNYWMDWVRQSPEKGLEWIAEIRLKSNYYSTHYAESVKGRFSISRDDSKGSVSLQMDNLTAEDTGIYFCARNAYWYFDVWGTGTTVTVSS
VL: DIVMTQSHKFMSTSVGDRVSATCKASQDVGTSVAWYQQKLGQSPKLLIYWTSTRHTGVPDRFTGSGSGTDFTLTISNVQSEDLADYFCQQYNNYPLTFGDGTKLELKR
notes: also called mAb7F9; MAb 7F9
For B1, the binding result (in assay [1]; in assay [3]; in assay [4]; with RAGE-derived peptide 10; with RAGE-derived peptide 5; in the assay with RAGE-derived peptide 7) was “no binding” throughout. Moreover, in the assay with RAGE-derived peptide 8, the binding result is given as “no binding”. The same molecule yielded a Kd in assay [2] of 0.11 nM.

B2: anti-human RAGE monoclonal antibody 4E5 (murine, hybridoma-derived) (antibody, V domains shown)
VH: QVQLQQSGAELVRPGTSVKVSCKASGYAFNNYLIEWIKQRPGQGLEWIGVINPGSGGTNHNEKFKVKATLTADKSSSTAYIQLSSLTSDDSAVYFCARSAGTARARFAYWGQGTLVTVSA
VL: DIQMTQSPSSLSASLGERVSLTCRASQDIGSSLNWLQQEPDGTIKRLIYATSSLDSGVPKRFSGSRSGSDYSLTISSLESEDFVDYYCLQYASFPFTFGSGTKLEIKR
notes: also called mAb4E5; ML37-4E5
In the case of B2, the binding result (in assay [1]; in assay [4]; with RAGE-derived peptide 10; in the assay with RAGE-derived peptide 5; with RAGE-derived peptide 7; with RAGE-derived peptide 8) was “no binding” each time. The same molecule displayed a Kd in assay [2] of 2.2 nM. In addition, the “EC50 (read off the curve)” value in assay [3] is about 0.2 nM.

B3: anti-human RAGE monoclonal antibody 11E6 (murine, hybridoma-derived) (antibody, V domains shown)
VH: QIQLVQSGPELKKPGETVKISCKASGYTFTNFGMNWVKQAPGKGLKWMGYINTNTGESIYSEEFKGRFAFSLETSASTAYLQINNLKNEDTATYFCARSRMVTAYGMDYWGQGTSVTVSS
VL: DIVMTQSQKFMSTSVGDRVSITCKASQNVGTAVAWYQQRPGQSPKLLIFSASNRYTGVPDRFTGSGSGTDFTLTLSNMQPEDLADYFCQQYSSYPLTFGVGTKLELKR
notes: also called mAb11E6; ML37-11E6
In the case of B3, the binding result (in assay [1]; in assay [4]; with RAGE-derived peptide 10; with RAGE-derived peptide 5; with RAGE-derived peptide 7; with RAGE-derived peptide 8) was “no binding” each time. Also, binding in assay [2] was characterised by a dissociation constant (Kd) of 0.29 nM. Further, the “EC50 (read off the curve)” value in assay [3] was about 0.2 nM.

The Kd is the free concentration of one partner at which half of the binding sites on the other are occupied at equilibrium, for simple one-to-one binding. A lower Kd goes with a tighter complex. One may read the EC50 (read off the curve) as the concentration giving half of the maximal effect. Read a high EC50 (read off the curve) as a less potent agent.
